The labels stand for the following.
B2: Microfibril-associated glycoprotein 4 (natural protein, human, UniProt P55083 22-255, looked up)
chain: VSGIRGDALERFCLQQPLDCDDIYAQGYQSDGVYLIYPSGPSVPVPVFCDMTTEGGKWTVFQKRFNGSVSFFRGWNDYKLGFGRADGEYWLGLQNMHLLTLKQKYELRVDLEDFENNTAYAKYADFSISPNAVSAEEDGYTLFVAGFEDGGAGDSLSYHSGQKFSTFDRDQDLFVQNCAALSSGAFWFRSCHFANLNGFYLGGSHLSYANGINWAQWKGFYYSLKRTEMKIRRA
modifications: intermolecular disulphide bond between C34 of two monomers; N-glycosylated at N87 and N137 (cryo-EM density)
notes: signal peptide in the construct; Q21 is the first residue after signal peptide cleavage; Octamer (8 copies) in TBS with 2 mM Ca2+; tetramer (4 copies) after Ca2+ depletion with EDTA or EGTA; also called MFAP4; source: HEK293 EBNA cells, transfected (pCEP4-MFAP4), conditioned medium, purified by nickel chelating chromatography

For data set [1], the target named is B2. The data set can be described thus: SPR; Ca2+ form (octamer): MFAP4 or MFAP4_(C34S) amine-coupled on CM5 (Biacore X), elastogenic proteins as analytes 5-100 µg/mL in TBS/Ca2+ (2 mM CaCl2); 1:1 Langmuir fit, KD is the average over five concentrations. The note with it: both partners purified.
Data set [2] concerns the molecule itself. The data set can be described thus: SDS-PAGE; non-reducing, 10% gel, Coomassie stain; disulphide-linked dimer.
Data set [3] deals with the molecule itself. The data set can be described thus: cryo-EM structure; MFAP4 after Ca2+ depletion with 5 mM EDTA; single particle analysis, C2 symmetry; tetramer.
Data set [4] deals with the molecule itself. As to the kind of experiment: dynamic light scattering; TBS/Ca2+ (2 mM); mass from hydrodynamic radius by calibration with standard proteins, globular model; monomers to octamer.
For another data set, the target named is T1, fibulin-5 (UniProt Q9UBX5 24-448).
T1 construct: fibulin-5, recombinant
T1 sequence (looked up): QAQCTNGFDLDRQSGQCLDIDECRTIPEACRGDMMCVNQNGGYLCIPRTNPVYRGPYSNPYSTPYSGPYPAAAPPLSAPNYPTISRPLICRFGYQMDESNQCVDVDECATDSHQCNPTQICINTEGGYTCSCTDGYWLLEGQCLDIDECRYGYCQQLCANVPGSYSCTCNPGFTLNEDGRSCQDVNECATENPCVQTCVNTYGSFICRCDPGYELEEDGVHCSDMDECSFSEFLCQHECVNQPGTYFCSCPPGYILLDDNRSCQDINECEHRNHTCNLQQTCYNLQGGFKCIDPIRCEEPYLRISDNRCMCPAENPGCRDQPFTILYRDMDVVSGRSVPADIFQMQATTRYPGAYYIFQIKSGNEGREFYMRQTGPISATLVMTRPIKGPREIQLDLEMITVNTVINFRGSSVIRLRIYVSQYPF
As to the kind of experiment: SPR; Ca2+ form (octamer): MFAP4 or MFAP4_(C34S) amine-coupled on CM5 (Biacore X), elastogenic proteins as analytes 5-100 µg/mL in TBS/Ca2+ (2 mM CaCl2); 1:1 Langmuir fit, KD is the average over five concentrations. The note with it: both partners purified. (In general: In SPR one partner is held on a chip, and binding of the other changes the refractive index at the surface.)

Data set [5] addresses T2, recombinant human tropoelastin (human, UniProt P15502 27-786).
T2 construct: human tropoelastin, recombinant; source: bought: Elastagen
T2 sequence (looked up): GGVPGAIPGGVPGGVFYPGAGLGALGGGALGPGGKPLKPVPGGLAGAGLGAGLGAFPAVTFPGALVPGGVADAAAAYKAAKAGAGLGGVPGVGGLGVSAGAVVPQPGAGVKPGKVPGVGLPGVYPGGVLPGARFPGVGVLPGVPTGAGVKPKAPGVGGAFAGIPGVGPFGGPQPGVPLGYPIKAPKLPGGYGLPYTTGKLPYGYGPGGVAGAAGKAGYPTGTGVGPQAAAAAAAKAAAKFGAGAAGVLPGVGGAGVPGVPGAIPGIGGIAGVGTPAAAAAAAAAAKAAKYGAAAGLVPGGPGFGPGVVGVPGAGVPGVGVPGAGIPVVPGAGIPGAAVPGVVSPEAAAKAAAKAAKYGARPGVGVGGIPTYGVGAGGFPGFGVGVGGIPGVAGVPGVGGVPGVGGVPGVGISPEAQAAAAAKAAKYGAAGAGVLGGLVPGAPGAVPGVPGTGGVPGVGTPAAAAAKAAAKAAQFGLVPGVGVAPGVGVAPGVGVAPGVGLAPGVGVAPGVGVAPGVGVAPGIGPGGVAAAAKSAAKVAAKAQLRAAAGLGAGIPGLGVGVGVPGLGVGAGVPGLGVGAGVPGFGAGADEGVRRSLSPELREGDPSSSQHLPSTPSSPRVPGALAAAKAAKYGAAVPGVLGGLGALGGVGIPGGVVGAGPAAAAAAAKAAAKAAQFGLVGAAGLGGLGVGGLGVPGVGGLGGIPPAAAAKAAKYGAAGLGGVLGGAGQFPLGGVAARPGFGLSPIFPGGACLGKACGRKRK
The description is as above. The following applies: both partners purified.

The target in data set [6] is T3, latent transforming growth factor beta binding protein-4, long isoform (UniProt Q8N2S1-1 28-1624).
T3 construct: LTBP4, long isoform (LTBP4L); also called LTBP4L
The data set is described as above. The note with it: both partners purified.

Another data set addresses T4, fibulin-4 (UniProt O95967 24-443).
T4 construct: fibulin-4, recombinant
T4 sequence (looked up): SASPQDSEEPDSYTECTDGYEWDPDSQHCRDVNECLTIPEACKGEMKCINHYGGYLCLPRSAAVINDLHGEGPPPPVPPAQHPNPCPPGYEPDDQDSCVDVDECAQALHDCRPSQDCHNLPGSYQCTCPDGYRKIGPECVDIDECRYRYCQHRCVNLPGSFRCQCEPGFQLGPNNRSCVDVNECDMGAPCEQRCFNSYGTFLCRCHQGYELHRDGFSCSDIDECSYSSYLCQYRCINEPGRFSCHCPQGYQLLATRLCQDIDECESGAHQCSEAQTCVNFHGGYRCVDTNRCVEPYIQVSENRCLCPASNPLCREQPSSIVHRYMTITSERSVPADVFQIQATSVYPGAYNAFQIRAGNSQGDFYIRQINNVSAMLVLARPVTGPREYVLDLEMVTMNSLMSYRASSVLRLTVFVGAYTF
Described as above. The note with it: both partners purified.

Data set [7] deals with the molecule itself. As to the kind of experiment: SPR; self-interaction of octamers; Biacore X, CM5 chip, MFAP4 or MFAP4_(C34S) amine-coupled (300-500 RU), same protein as analyte 5-100 µg/mL in TBS/Ca2+ (50 mM Tris-HCl pH 7.4, 150 mM NaCl, 2 mM CaCl2); 1:1 Langmuir fit, KD is the average over five concentrations.
Data set [8] deals with the molecule itself. As to the kind of experiment: atomic force microscopy; MFAP4 or MFAP4_(C34S) Ca2+-depleted (5 mM EDTA); particle heights on mica, tapping mode in air.

T3 sequence (Q8N2S1 28-1624): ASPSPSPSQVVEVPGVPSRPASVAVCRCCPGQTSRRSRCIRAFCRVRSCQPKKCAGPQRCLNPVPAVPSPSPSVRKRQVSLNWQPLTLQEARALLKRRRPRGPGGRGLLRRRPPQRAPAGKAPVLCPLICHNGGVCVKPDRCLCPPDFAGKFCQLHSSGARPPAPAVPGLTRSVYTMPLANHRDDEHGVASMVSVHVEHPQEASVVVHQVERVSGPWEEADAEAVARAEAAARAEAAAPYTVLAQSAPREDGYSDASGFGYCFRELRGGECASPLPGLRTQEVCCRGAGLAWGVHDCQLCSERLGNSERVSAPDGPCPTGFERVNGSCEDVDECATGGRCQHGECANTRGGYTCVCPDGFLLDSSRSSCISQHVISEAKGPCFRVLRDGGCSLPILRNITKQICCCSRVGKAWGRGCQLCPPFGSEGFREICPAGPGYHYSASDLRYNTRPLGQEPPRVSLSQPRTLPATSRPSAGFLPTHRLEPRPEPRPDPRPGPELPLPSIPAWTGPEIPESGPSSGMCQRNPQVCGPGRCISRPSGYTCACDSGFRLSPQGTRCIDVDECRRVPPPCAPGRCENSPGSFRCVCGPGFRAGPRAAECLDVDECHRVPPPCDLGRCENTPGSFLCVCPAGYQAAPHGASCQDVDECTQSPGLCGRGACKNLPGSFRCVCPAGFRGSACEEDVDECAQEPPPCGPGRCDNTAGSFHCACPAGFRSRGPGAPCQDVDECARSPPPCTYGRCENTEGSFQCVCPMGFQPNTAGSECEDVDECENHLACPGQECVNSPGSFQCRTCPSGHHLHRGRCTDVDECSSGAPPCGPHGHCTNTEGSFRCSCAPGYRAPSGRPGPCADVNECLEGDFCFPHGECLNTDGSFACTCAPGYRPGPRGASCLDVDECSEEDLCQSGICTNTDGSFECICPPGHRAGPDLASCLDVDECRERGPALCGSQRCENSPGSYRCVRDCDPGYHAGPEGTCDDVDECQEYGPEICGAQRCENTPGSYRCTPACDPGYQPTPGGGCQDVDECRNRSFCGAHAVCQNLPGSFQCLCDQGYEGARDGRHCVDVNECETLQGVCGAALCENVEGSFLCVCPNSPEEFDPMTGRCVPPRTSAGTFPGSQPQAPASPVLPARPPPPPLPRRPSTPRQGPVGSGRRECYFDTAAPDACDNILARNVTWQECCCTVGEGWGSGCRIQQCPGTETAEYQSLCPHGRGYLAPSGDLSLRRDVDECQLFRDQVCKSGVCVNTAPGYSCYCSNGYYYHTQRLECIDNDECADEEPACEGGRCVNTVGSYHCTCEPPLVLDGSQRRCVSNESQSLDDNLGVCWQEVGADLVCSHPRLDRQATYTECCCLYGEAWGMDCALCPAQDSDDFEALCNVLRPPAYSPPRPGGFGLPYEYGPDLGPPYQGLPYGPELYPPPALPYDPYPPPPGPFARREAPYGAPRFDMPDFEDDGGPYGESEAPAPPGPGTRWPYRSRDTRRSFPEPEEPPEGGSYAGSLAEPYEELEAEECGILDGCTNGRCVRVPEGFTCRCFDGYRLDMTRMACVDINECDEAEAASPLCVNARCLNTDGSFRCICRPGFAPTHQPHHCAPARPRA

B1: fibrillin-1 centre region fragment rF1M (domain or fragment)
chain: not shown
B1: the affinity in [1], expressed as Kd, was 1.2 nM.
Regarding B2, the stoichiometry N (commonly the number of molecules, sites or subunits per partner or assembly) is 2 in data set [2], 4 in data set [3] and 8 in data set [4]. In addition, the Kd (commonly a measure of binding affinity in units of concentration) with fibulin-5 came out at 357 nM; in [5], 45 nM; in [6], 18 nM; with fibulin-4, 110 nM; in [7] it was 6.2 nM.

B3: MFAP4_(C34S) (natural protein, human, UniProt P55083 22-255, looked up)
chain: VSGIRGDALERFSLQQPLDCDDIYAQGYQSDGVYLIYPSGPSVPVPVFCDMTTEGGKWTVFQKRFNGSVSFFRGWNDYKLGFGRADGEYWLGLQNMHLLTLKQKYELRVDLEDFENNTAYAKYADFSISPNAVSAEEDGYTLFVAGFEDGGAGDSLSYHSGQKFSTFDRDQDLFVQNCAALSSGAFWFRSCHFANLNGFYLGGSHLSYANGINWAQWKGFYYSLKRTEMKIRRA
notes: signal peptide in the construct; human MFAP4, M1KAL...IRRA255 with C34S; Q21 is the first residue after signal peptide cleavage; Octamer in TBS with Ca2+; tetramer after Ca2+ depletion; No intermolecular disulphide bond; also called MFAP_(C34S); source: HEK293 EBNA cells, transfected (pCEP4-MFAP4_(C34S)), conditioned medium, purified by nickel chelating chromatography
Take B3: the “stoichiometry N” value in data set [8] was determined as 4; in [4], 8. For the same molecule, binding in data set [7] was put at a Kd of 5.8 nM.
